Holding throughout (assay): Selectivity ELISA of humanized antibodies for human Eph receptor
Holding throughout (type): binding
What all share (details): coated protein 1 nM

One test has as its target SEAP-His (Homo sapiens, UniProt P05187). In a few lines: (§1)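 Extracellular domains of human Eph receptors fused to SEAP-His were expressed in Expi293F cells for 5 days and captured from supernatant (1 nM final) on anti-His-coated plates. Humanized anti-EphA4 antibodies were incubated 1 h at room temperature, then HRP anti-IgG secondary, TMB substrate, and absorbance at 450 nm.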

The target in the next test is T1, human EphA7 (Homo sapiens, UniProt Q15375).
T1 construct: a protein of the extracellular region of each human Eph receptor fused with the SEAP protein and the His tag; made in house; host or cells: Expi293F cells (culture supernatant)
T1 sequence (Q15375 28-555 limits assumed): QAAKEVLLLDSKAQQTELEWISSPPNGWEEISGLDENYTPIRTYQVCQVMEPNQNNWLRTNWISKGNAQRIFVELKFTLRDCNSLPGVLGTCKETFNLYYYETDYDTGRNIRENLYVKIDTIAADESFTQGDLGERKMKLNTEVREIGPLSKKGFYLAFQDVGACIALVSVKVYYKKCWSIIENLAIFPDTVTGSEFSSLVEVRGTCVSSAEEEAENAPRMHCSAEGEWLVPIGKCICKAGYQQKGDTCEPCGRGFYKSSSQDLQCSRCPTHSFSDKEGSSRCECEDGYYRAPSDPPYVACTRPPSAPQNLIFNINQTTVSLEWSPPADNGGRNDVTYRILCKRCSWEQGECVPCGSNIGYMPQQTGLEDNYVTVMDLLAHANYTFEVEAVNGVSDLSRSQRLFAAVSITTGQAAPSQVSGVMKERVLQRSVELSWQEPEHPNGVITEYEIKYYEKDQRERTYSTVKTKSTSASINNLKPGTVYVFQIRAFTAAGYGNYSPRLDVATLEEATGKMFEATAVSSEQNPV
In outline:
as §1

For the next test, the target named is T2, human EphA8 (Homo sapiens, UniProt P29322).
T2 construct: a protein of the extracellular region of each human Eph receptor fused with the SEAP protein and the His tag; made in house; host or cells: Expi293F cells (culture supernatant)
T2 sequence (P29322 28-542 limits assumed): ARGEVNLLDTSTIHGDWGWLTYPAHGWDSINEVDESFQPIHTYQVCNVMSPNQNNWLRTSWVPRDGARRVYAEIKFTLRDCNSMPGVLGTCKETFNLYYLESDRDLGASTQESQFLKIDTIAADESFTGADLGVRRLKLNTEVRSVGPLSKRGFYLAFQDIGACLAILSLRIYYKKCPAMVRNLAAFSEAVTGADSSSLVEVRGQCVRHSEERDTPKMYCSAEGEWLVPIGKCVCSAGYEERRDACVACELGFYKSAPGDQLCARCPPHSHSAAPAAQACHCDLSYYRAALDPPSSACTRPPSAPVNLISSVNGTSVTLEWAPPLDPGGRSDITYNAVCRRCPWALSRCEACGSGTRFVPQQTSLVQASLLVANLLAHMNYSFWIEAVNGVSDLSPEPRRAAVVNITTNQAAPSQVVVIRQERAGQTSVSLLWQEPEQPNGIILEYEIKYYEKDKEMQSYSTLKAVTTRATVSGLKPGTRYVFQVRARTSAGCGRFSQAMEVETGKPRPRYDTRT
In a few lines: as §1

The target in another test is T3, human EphB4 (Homo sapiens, UniProt P54760).
T3 construct: a protein of the extracellular region of each human Eph receptor fused with the SEAP protein and the His tag; made in house; host or cells: Expi293F cells
T3 sequence (P54760 16-539 limits assumed): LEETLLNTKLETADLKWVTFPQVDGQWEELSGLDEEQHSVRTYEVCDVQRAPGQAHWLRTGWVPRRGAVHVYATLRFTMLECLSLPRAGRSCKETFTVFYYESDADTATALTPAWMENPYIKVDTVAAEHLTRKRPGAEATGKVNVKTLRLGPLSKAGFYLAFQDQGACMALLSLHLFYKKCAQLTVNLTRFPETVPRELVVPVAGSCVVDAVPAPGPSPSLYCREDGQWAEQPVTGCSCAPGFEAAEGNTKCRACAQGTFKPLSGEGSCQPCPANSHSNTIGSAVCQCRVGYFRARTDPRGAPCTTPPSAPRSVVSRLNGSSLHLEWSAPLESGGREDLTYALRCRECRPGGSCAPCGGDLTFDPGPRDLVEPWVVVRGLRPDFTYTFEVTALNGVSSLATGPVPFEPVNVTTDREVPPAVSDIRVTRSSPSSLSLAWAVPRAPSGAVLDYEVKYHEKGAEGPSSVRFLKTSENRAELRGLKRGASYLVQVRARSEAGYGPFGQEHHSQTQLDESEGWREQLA
In a few lines:
as §1

Chain of SEAP-His (P05187 23-511 limits assumed): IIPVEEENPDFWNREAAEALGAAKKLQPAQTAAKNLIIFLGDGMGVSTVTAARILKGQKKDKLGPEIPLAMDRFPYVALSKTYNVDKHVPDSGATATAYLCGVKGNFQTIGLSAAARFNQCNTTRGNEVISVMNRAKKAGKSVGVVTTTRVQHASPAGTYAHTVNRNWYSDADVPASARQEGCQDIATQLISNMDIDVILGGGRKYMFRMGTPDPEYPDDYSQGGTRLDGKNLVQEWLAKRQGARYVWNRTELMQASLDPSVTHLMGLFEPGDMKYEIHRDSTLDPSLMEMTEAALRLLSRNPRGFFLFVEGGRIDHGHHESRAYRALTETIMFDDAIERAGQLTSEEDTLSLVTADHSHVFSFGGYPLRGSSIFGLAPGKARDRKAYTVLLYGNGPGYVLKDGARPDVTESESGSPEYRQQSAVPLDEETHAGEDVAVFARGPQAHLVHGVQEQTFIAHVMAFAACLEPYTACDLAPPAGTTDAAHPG

B1: 69 (antibody, V domains shown)
VH: QIQLVQSGSELKKPGASVKVSCKASGYTFTDYSMHWVRQAPGQGLKWMGWINTETGEPTYADDFKGRFVFSLDTSVSTAYLQISSLKAEDTAVYYCARIPLYYYGSRYWYFDVWGQGTTVTVSS
VL: DIQMTQSPSSLSASVGDRVTITCRASENIYRNLAWYQQKPGKAPKLLVYAATNLADGVPSRFSGSGSGTDYTLTISSLQPEDFATYYCQHFWGTPWTFGQGTKVEIK
modifications: synthetic humanized antibody heavy chain variable region sequence; synthetic humanized antibody light chain variable region sequence
On to B1, for which the “SEAP-His: absorbance at 450 nm, percentage with respect to hEphA4-SEAP-His as 100%” value with SEAP-His is 6.1%. For the same molecule, the “hEphA7-SEAP-: absorbance at 450 nm, percentage with respect to hEphA4-SEAP-His as 100%” value in the test with human EphA7 is 5.3%. Also, the “hEphA8-SEAP-: absorbance at 450 nm, percentage with respect to hEphA4-SEAP-His as 100%” value with human EphA8 came to 5.5%. Moreover, the “hEphB4-SEAP-: absorbance at 450 nm, percentage with respect to hEphA4-SEAP-His as 100%” value with human EphB4 turned out to be 5.5%.

B2: 84 (antibody, V domains shown)
VL: DIQMTQSPSSLSASVGDRVTITCRASENIYRNLAWYQQKPGKAPKLLLYAATNLADGVPSRFSGSGSGTDYTLTISSLQSEDFATYYCQHFWGTPWTFGQGTKVEIK
VH: QVQLVQSGSELKKPGASVKVSCKASGYTFTDYSMHWVRQAPGQGLEWMGWINTETGEPTYADDFKGRFVFSLDTSVSTAYLQISSLKAEDTAVYYCARIPLYYYGSRYWYFDVWGQGTTVTVSS
modifications: constant regions without entry; synthetic humanized antibody light chain variable region sequence; synthetic humanized antibody heavy chain variable region sequence
As to B2, the “SEAP-His: absorbance at 450 nm, percentage with respect to hEphA4-SEAP-His as 100%” value with SEAP-His was 5.1%. In addition, in the test with human EphA7, the “hEphA7-SEAP-: absorbance at 450 nm, percentage with respect to hEphA4-SEAP-His as 100%” value was determined as 4.8%. In addition, the “hEphA8-SEAP-: absorbance at 450 nm, percentage with respect to hEphA4-SEAP-His as 100%” value in the test with human EphA8 is recorded as 5.3%. Further, in the test with human EphB4, the “hEphB4-SEAP-: absorbance at 450 nm, percentage with respect to hEphA4-SEAP-His as 100%” value was 5.4%.

B3: 82 (antibody, V domains shown)
VL: DIQMTQSPSSLSASVGDRVTITCRASENIYRNLAWYQQKPGKAPKLLLYAATNLADGVPSRFSGSGSGTDYTLTISSLQSEDFATYYCQHFWGTPWTFGQGTKVEIK
VH: QVQLVQSGSELKKPGASVKVSCKASGYTFTDYSMHWVRQAPGQGLKWMGWINTETGEPTYAQGFTGRFVFSLDTSVSTAYLQISSLKAEDTAVYYCARIPLYYYGSRYWYFDVWGQGTTVTVSS
modifications: constant regions without entry; synthetic humanized antibody light chain variable region sequence; synthetic humanized antibody heavy chain variable region sequence
With B3, the “SEAP-His: absorbance at 450 nm, percentage with respect to hEphA4-SEAP-His as 100%” value in the test with SEAP-His is reported as 5.9%. In the test with human EphA7, the “hEphA7-SEAP-: absorbance at 450 nm, percentage with respect to hEphA4-SEAP-His as 100%” value was 5.4%. Besides, in the test with human EphA8, the “hEphA8-SEAP-: absorbance at 450 nm, percentage with respect to hEphA4-SEAP-His as 100%” value is reported as 5.8%. Besides, in the test with human EphB4, the “hEphB4-SEAP-: absorbance at 450 nm, percentage with respect to hEphA4-SEAP-His as 100%” value is given as 5.7%.

B4: 85 (antibody, V domains shown)
VL: DIQMTQSPSSLSASVGDRVTITCRASENIYRNLAWYQQKPGKAPKLLLYAATNLADGVPSRFSGSGSGTDYTLTISSLQSEDFATYYCQHFWGTPWTFGQGTKVEIK
VH: QVQLVQSGSELKKPGASVKVSCKASGYTFTDYSMHWVRQAPGQGLKWMGWINTETGEPTYADDFKGRFVFSLDTSVSTAYLQISSLKAEDTAVYYCARIPLYYYGSRYWYFDVWGQGTTVTVSS
modifications: constant regions without entry; synthetic humanized antibody light chain variable region sequence; synthetic humanized antibody heavy chain variable region sequence
For the molecule B4, the “SEAP-His: absorbance at 450 nm, percentage with respect to hEphA4-SEAP-His as 100%” value in the test with SEAP-His is on record as 5.3%. In the test with human EphA7, the “hEphA7-SEAP-: absorbance at 450 nm, percentage with respect to hEphA4-SEAP-His as 100%” value worked out at 4.8%. In the test with human EphA8, the “hEphA8-SEAP-: absorbance at 450 nm, percentage with respect to hEphA4-SEAP-His as 100%” value is 5.5%. Besides, in the test with human EphB4, the “hEphB4-SEAP-: absorbance at 450 nm, percentage with respect to hEphA4-SEAP-His as 100%” value was determined as 5.2%.

B5: 86 (antibody, V domains shown)
VL: DIQMTQSPSSLSASVGDRVTITCRASENIYRNLAWYQQKPGKAPKLLLYAATNLADGVPSRFSGSGSGTDYTLTISSLQSEDFATYYCQHFWGTPWTFGQGTKVEIK
VH: QIQLVQSGSELKKPGASVKVSCKASGYTFTDYSMHWVRQAPGQGLKWMGWINTETGEPTYADDFKGRFVFSLDTSVSTAYLQISSLKAEDTAVYYCARIPLYYYGSRYWYFDVWGQGTTVTVSS
modifications: constant regions without entry; synthetic humanized antibody light chain variable region sequence; synthetic humanized antibody heavy chain variable region sequence
Take B5: in the test with SEAP-His, the “SEAP-His: absorbance at 450 nm, percentage with respect to hEphA4-SEAP-His as 100%” value was 6.1%. Also, the “hEphA7-SEAP-: absorbance at 450 nm, percentage with respect to hEphA4-SEAP-His as 100%” value with human EphA7 is listed as 5.6%. For the same molecule, in the test with human EphA8, the “hEphA8-SEAP-: absorbance at 450 nm, percentage with respect to hEphA4-SEAP-His as 100%” value is reported as 5.7%. In addition, in the test with human EphB4, the “hEphB4-SEAP-: absorbance at 450 nm, percentage with respect to hEphA4-SEAP-His as 100%” value is reported as 5.8%.

B6: 83 (antibody, V domains shown)
VL: DIQMTQSPSSLSASVGDRVTITCRASENIYRNLAWYQQKPGKAPKLLLYAATNLADGVPSRFSGSGSGTDYTLTISSLQSEDFATYYCQHFWGTPWTFGQGTKVEIK
VH: QIQLVQSGSELKKPGASVKVSCKASGYTFTDYSMHWVRQAPGQGLKWMGWINTETGEPTYAQGFTGRFVFSLDTSVSTAYLQISSLKAEDTAVYYCARIPLYYYGSRYWYFDVWGQGTTVTVSS
modifications: constant regions without entry; synthetic humanized antibody light chain variable region sequence; synthetic humanized antibody heavy chain variable region sequence
In the case of B6, the “SEAP-His: absorbance at 450 nm, percentage with respect to hEphA4-SEAP-His as 100%” value in the test with SEAP-His turned out to be 6.5%. Moreover, the “hEphA7-SEAP-: absorbance at 450 nm, percentage with respect to hEphA4-SEAP-His as 100%” value with human EphA7 is on record as 5.5%. Moreover, the “hEphA8-SEAP-: absorbance at 450 nm, percentage with respect to hEphA4-SEAP-His as 100%” value with human EphA8 is reported as 6.0%. Further, the “hEphB4-SEAP-: absorbance at 450 nm, percentage with respect to hEphA4-SEAP-His as 100%” value with human EphB4 is 5.7%.

B7: 81 (antibody, V domains shown)
VL: DIQMTQSPSSLSASVGDRVTITCRASENIYRNLAWYQQKPGKAPKLLLYAATNLADGVPSRFSGSGSGTDYTLTISSLQSEDFATYYCQHFWGTPWTFGQGTKVEIK
VH: QVQLVQSGSELKKPGASVKVSCKASGYTFTDYSMHWVRQAPGQGLEWMGWINTETGEPTYAQGFTGRFVFSLDTSVSTAYLQISSLKAEDTAVYYCARIPLYYYGSRYWYFDVWGQGTTVTVSS
modifications: constant regions without entry; synthetic humanized antibody light chain variable region sequence; synthetic humanized antibody heavy chain variable region sequence
Regarding B7, the “SEAP-His: absorbance at 450 nm, percentage with respect to hEphA4-SEAP-His as 100%” value with SEAP-His is listed as 5.0%. The “hEphA7-SEAP-: absorbance at 450 nm, percentage with respect to hEphA4-SEAP-His as 100%” value in the test with human EphA7 is listed as 5.2%. The “hEphA8-SEAP-: absorbance at 450 nm, percentage with respect to hEphA4-SEAP-His as 100%” value with human EphA8 was determined as 5.2%. Further, the “hEphB4-SEAP-: absorbance at 450 nm, percentage with respect to hEphA4-SEAP-His as 100%” value with human EphB4 is on record as 5.0%.

These data come from patent US10428140B2, “Anti-EphA4 antibody” (EISAI R&D MANAGEMENT CO., LTD., priority 2015, dated 2019).
